From US20250129178A1 (INNOBATION BIO, published 2025) come the findings set out here.

Assay [1] concerns the target T1, mesothelin on NCI-H2052 mesothelioma cells overexpressing mesothelin (UniProt Q13421 296-598).
T1 construct: whole, on cells; NCI-H2052 is a human cell line and the positive control is anti-human mesothelin; also called H2052 cells; cells expressing mesothelin
Nature of the assay: flow cytometry on NCI-H2052 cells, 1 ug antibody, PE goat anti-mouse IgG secondary.

For assay [2], the target named is T2, mesothelin protein (Acrobiosystems, cat #MSN-H5223) (UniProt Q13421 296-580).
T2 construct: The catalogue number is printed only for the immunogen; also called mesothelin peptide; MSLN
T2 sequence (Q13421 other isoform, or with tags, fused parts or gaps limits assumed): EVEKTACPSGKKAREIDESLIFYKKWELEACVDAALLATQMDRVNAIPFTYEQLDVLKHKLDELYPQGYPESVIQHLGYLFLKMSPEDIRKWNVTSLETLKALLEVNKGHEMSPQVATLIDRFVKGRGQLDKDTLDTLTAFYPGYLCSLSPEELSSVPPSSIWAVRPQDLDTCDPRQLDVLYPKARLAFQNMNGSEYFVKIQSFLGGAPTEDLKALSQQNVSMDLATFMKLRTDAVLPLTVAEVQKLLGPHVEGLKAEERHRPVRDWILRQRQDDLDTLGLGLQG
Nature of the assay: ELISA, mesothelin peptide coated 100 ng/well, 100 ul hybridoma culture, anti-mIgG-HRP. Background: ELISA stands for enzyme-linked immunosorbent assay.
Protocol: First, in order to encode the mesothelin peptide, mesothelin peptide was dispensed into a 96-well plate at an amount of 100 ng/well and reacted overnight at 4° C. Then, after treatment with 1×PBST containing 3% BSA, it was blocked for 30 minutes at room temperature. […] The secondary antibody (anti-HRP, 1:10,000) was treated and reacted at room temperature for 30 minutes, washed three times with 1×PBST, and then treated with TMB for color development and reacted at room temperature for 5 minutes. Finally, the reaction was terminated by treatment with a stop solution of 1N H₂SO₄, and then the absorbance was measured at 450 nm.

T1 sequence (Q13421 other isoform, or with tags, fused parts or gaps limits assumed): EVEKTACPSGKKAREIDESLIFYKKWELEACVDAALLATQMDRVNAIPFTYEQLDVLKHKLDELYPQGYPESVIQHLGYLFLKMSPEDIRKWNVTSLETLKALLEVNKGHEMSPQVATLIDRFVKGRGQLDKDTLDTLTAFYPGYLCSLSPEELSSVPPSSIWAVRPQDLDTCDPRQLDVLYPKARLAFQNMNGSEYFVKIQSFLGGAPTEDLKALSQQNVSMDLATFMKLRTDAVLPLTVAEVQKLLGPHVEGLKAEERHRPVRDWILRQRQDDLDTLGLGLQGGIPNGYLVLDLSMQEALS

B1: 7C3 antibody (antibody, V domains shown)
VH: EVQLQQSGAELMRPGASVKISCKATGYTFSAYWIEWVKQRPGHGLEWIGEILPGSGSTKYNEKFKGKATFTADTSSNTAYMQLSSLTSEDSAVYYCARGDYYAMDYWGQGTSVTVSS
VL: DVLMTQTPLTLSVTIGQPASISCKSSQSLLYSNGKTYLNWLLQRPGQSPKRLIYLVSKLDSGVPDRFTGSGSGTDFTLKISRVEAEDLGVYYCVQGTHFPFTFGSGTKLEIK
notes: Mouse hybridoma monoclonal antibody, detected with anti-mouse IgG
For B1, in assay [1], the Mean is 528 and the Median came out at 444. In addition, the “OD 450 measurements” value in assay [2] amounted to 1.52 OD 450.

B2: 9E11 antibody (antibody, V domains shown)
VH: QVQLKESGPGLVKPSQSLSLTCTVTGYSITSDYAWNWIRQFPGNKLEWMGYISYSGSTRYNPSLKSRISITRDTSKNQFFLQLNSVTTEDTATYYCARGAAGFAYWGQGTLVTVSA
VL: DIVMTQSPASQSASLGESVTITCLASQTIGTWLAWYQQKPGKSPQLLIYAATSLADGVPSRFSGSGSGTEFSFKISSLQAEDFVSYYCQQLYSTPWTFGGGTKLEIK
notes: as for B1
Turning to B2, in assay [1], the Mean turned out to be 81.4 and the Median came out at 69.1. In assay [2], the “OD 450 measurements” value was 1.64 OD 450.

B3: 4G11 antibody (antibody, V domains shown)
VH: EVQLQQSGPELVKTGDSVKISCKASGYSFTGYYMHWVKQSHGKSLEWIGYISCYNGATSYSQKFKGKATFTVDTSSSTAYMQFNSLTSEDSAVYYCARWDRDWFAYWGQGTLVTVSA
VL: DIVMTQSHKFMSTSVGDRVSITCKASQDVGIAVAWYQQKPGQSPKLLIYWASTRHTGVPDRFTGSGSGTDFTLTISNVQSEDLADYFCQQYSSYPFTFGSGTKLEIK
notes: as for B1
In assay [1], B3 yielded a Mean of 1260 and a Median of 1120. Also, the “OD 450 measurements” value in assay [2] stood at 1.35 OD 450.

B4: 5A9 antibody (antibody, V domains shown)
VH: EVQLEESGPAVIKPSQSLSLTCIVSGFSITSSSYCWHWIRQPPGKGLEWMGRICYEGSIYYSPSIKSRFTISRDTSLNKFFIQLSSVTNEDTAMYYCSRENRLLKDAMDYWGQGTSVTVSS
VL: DIVMTQSPSSLAVSAGEKVTMSCKSSQSLLSSRTRKNYLAWYQQKPGQSPKLLIYWASTRESGVPDRFTGSGSGTDFTLTISSVQAEDLAVYYCKQSYNLRTFGGGTKLEIK
notes: as for B1
In assay [1], B4 came in with a Mean of 63.2 and a Median of 58.5. Also, the “OD 450 measurements” value in assay [2] came to 1.49 OD 450.

B5: 9E8 antibody (antibody, V domains shown)
VH: EVQLQQSGPELVKPGASMKISCKASGYSFTGYTMNWVKQSHGKNLEWIGLINPYNGGTSYNQKFKGKATLTVDKSSSTAYMELLSLTSEDSAVYYCARVGGSSWYFDVWGAGTTVTVSS
VL: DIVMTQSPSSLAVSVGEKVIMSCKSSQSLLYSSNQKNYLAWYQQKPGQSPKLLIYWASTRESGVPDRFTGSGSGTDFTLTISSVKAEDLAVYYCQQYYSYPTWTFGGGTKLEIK
notes: Mouse hybridoma monoclonal antibody, detected with anti-mouse IgG; The printed VH and VL are identical to those of 3A8
In assay [1], B5 came in with a Mean of 77.7 and a Median of 56.2. Moreover, the “OD 450 measurements” value in assay [2] was 0.758 OD 450.

B6: 3A8 antibody (antibody, V domains shown)
VH: EVQLQQSGPELVKPGASMKISCKASGYSFTGYTMNWVKQSHGKNLEWIGLINPYNGGTSYNQKFKGKATLTVDKSSSTAYMELLSLTSEDSAVYYCARVGGSSWYFDVWGAGTTVTVSS
VL: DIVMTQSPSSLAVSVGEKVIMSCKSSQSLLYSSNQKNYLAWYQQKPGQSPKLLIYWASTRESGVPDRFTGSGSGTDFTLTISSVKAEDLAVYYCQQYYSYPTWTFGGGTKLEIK
notes: Mouse hybridoma monoclonal antibody; Tested as hybridoma culture supernatant in ELISA and at 1 ug in flow cytometry, detected with anti-mouse IgG; The printed VH and VL are identical to those of 9E8
In assay [1], B6 returned a Mean of 861 and a Median of 704. In assay [2], the “OD 450 measurements” value was 1.27 OD 450.
